From the nanobody polyreactivity screen of Harvey et al. (2022)

test: yeast display, Sf9 membrane polyspecificity reagent, FACS + sequencing; frameworks hold sequencing errors
Procedure, shortened: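 Genes from sorted yeast were amplified by colony PCR, read by MiSeq 2 × 250 sequencing and filtered on CDR length. These cells carried a synthetic nanobody library in Saccharomyces cerevisiae BJ5465 and were sorted by FACS into low and high (top ~1%) gates on anti-HA and streptavidin fluorescence. Polyreactivity is labelled according to the gate of origin.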

Sequence	polyreactivity (PSR sort gate)
QVQLVESGGGLVQAGGSLRLSCAASGSTFKAYAMGLYRPAPGKERELVAAITRRGTSTYYADSVKGRFTISRDNAKNTVYLQMNSLKPEDTAVYYCNAKYVSDRSSAVSFDYWGQGTQVTVSS	low polyreactivity
QVQLVESGGGLVQAGGSLRLSCAASGINYDYYTMGWYRQAPGKERELVASINFSGGSTYYADSVKGRFTISRDNAKNTVYLQMNSLKPEDTAVYYCAAVSVSFWGGGRYYYWGQGTQVTVSS	high polyreactivity
QVQLVESGGGLVQAGGSLRLSCAASGSIFGWYAMGWYRQAPGKERELVAAIDSATSTDYADSVKGRFTISRDNAKNTVYLQMNSLKPEDTAFYYCAVYSCWIDAEYDYWGQGTQVTGSS	low polyreactivity
QVQLVESGGGLVQAGGSLRLSCSASGRNFKYYAMGWYRKAPGKERELVAAITSTGGSTYYADSVKGRFTISRDNGKNTVYLQLNSLKPEDTAVYYCNRDTQYRDRSDNHWGQGTQVTVSS	high polyreactivity
QVQLVESGGGLVQAGGSLRLSCADSGRTFVSNAMGWYRQAPGKERELVAAISGSGGITYYADSVKGRFTISRDNAKNTVYLQMNSLKPEDTAVYYCNADSSGWFPFDYWGQGTQVTVSS	low polyreactivity
QVQLVESGGGLVQAGGSLRLRCAASVRIFRVYAMGRYSQAPGKERELVAAISSSGGSTYYADSVKGRFTMSRDNAKNTDYLQMNSLKPEDTAVYYCAAGGLHTIQRPGYYYWGQGTQVTVSS	low polyreactivity
QVQLVESGGGLVQAGGSLRLSCAASGSIIGIYAMGWYRQAPGKERELVAAISWSGGSTYYADSVKGRFTISRDNAKNTVYLQMNSLKPEDTAVYYCNAYPAYLDDYWGQGTQVTVSS	low polyreactivity
QVQLVESGGGLVQAGGSLRLSCAASGSTFDLYAMGWCRQAPGKEREWVAAITWSGDDTYYADSVKGRFTISRDNATNTVYLQMNSLKPEDTAVYYCAAAYAYWGQGTQVTVSS	low polyreactivity
KVQLVESGGGLVQAGGSLRISCAASGIIFLGYAMGWYRQAPGKERELVAGISSRGGSTYYADSVKGRFTISRDNAKNTVYLQMNSLKPADSAVYYCAAVSRGSGRDYWGQGTQVTVSS	high polyreactivity
QVQLVESGGGLVQAGGSLRLSCAASGGIFAPNAKGWYRQAPGKEREFVAAISTGGGSTRYADSVKGRFTISRDNAKYTVYLQMNSLKPEDTAVYYCAATRVGVRRMDYWGQGTQVTVSS	low polyreactivity
QVQLVESGGGLVQAGGSLRISCAASGRIFYSNTMGWYRQAPGKEREVVARIDTGGGSTYADSVKGRFTISRDNAKKSVYLEMHSLKPADTAVYYCYKKGRWRSWGSTSLVSMDYWGQGTQVTVSS	low polyreactivity
QVKLVESGGGLVQAGGSLRISCAASGLTFPKYAMGWYRQAPGKERELVAAITQRGGSTYYADSVKVRFTISRDNAKNTVYLEMYWLKREDTAVYYCNARRRDYNNRREFDYWGQGSQVTVSS	high polyreactivity
QVQLVESGGGLVQAGGSLRLSCAASGSIFDINVMGWYRQAPGKERELVAAITSGGRTNYADSVKGRFTISRDNAKNTVYLQMNSLKPEDTAVYYCAAVRHRQTYPKYNYWGQGTQVTVSS	high polyreactivity
QVQLVESGRGLVQAGGSLRLSCAASGLIFTANAMGWYRQAPGKERELVASITRDGGTNYADSVKVRFTISRDNAKNTVYLQMNSLKPEDTAVYYCAKESGSVLTLYDYWGQGTQVTVSS	low polyreactivity
QVQLVESGGGLVQAGGSLRLSCAASGFTFFVYAMGWYRQAPGKEREGVAVITSGGTTNYADSVKGRFTISRDNAKNTVYLQMNSLKPEDTAVYYCATDNGGIPKYVPYDYWGQGTQVTVSS	high polyreactivity
QVQIVESGGGLVQAGGSLRLICAASGRIFYRYAMGWYRQAPGKERELVAAISSGSSTNYADSVKGRFTISRDNAKNTVYLQMNSLKPEDTAVYYCNAERYGKSWRYCYWGQGTQVTVSS	high polyreactivity

Sequence	polyreactivity (PSR sort gate)
QGQLVESGGCLVQAGGSLRLSCAASGSIFSENTMGWYRQAPGKKRELVADITSGGSTNYADSVKGRFTSSRDNAKYTVYLQMNSLIPEDTEVYYCAADYNGEYDYWGQGTLVTVSS	low polyreactivity
QVQLVESGGGLVQAGGSLRLSCAASGIIFYGYDMGWYRQAPGKERELVAAITWSGGSTYYADSVKGRFTISRDNAKNTVYLQMNSLKPEDTAVYYCNADLDSGYGSYDYWGQGTQVTVSS	low polyreactivity
QVQLVESGGGLVQAGGSLRLSCAASGRPFVSYALGWYRQAPGKERELVAVITGGTGNTYYADSVKGRFTISRDNAKNTVYLQMNSLIPEDTAVYYCNARGGYYKFRYPLYYWGQVTQVTVSS	high polyreactivity
QVQLVESGGGLVQAGGSLRLSCSASGLTFKENAMGWYRQAPGTERELVAAISKGGGSTFYADSVKGRFTISRDNAKNTVYLQMNTLKPEDTAVYYCNADVGYRGGEEDYWGQGTQVTVSS	low polyreactivity
QVQLVESGGGLVQAGGSLRLSCAASGRIFSINALGWYRQAPGKEREFVATISDRGSTTSYADSVKGRFTISRDNAKNTVYLQMNSLKPEDTAVYYCAARSYYRYDYWGQGTQVTVSS	high polyreactivity
QVQLVESGGGLVQAGGSLRLSCAASGRTFRSNAMGGYRQAPGKERELVAAITYSGDRTYYADSVKGRFTISRDNAKNTVYLQMNSLKPEDTAVYDCNKYSRQYTYGYWGQGTQVTVSS	high polyreactivity
QVQLVDSGGGLVQAGGSLRLSCAASGNIFVGNAMGWYRQAPGKERELVAAIRRSGGTTYYADSVKGRFTISRDNAKNTVYLQMNSLKPEDTAVYYCAASRPYQGDYWGQGTQVTVSS	low polyreactivity
QVQLVESGGGLVQAGGSLRLSCAASGSISKINAMGWYRQAPGKERELVAAINTGDSTYYADSVKGRFTISRDNAKNTVYLQMNSLKPEDTAVYYCATVVYTWFLAEEDDYCGQGTQVTVSS	low polyreactivity
QVQLVESCGGLVQAGGSHRLSCAASGSTFKGYDMGWYRQAPGKERELVAAIDSGGSTYYADSVKGRFTISRDNAKNTVYLQMNSLKPEDTAVYYCAATGQDTYGLDVVDEYDYWGQGTQVTVSS	low polyreactivity
QVQLVESWGGLVQAGGSLRLSCDASGSTFDGNDMGWSRPAPGKQRELVAAITIGGGSTYYADSVKGRFTISRDNAKNTVYLQMNSLKPEDTADYYCATEWVTGSEDYDYWGQGTQVTVSS	low polyreactivity
QVQLVESGGGLVQAGGSLRLSCAASGFIFYYYAMGWYRQAPGKERELVAAISWSGGRTYYADSVKGRFTISRDNAKNTVYLQMNSLKPEDTAVYYCAAVGYSKRYIYWGQGTQVTVSS	high polyreactivity
QVQLVESVGGLVQAGGSLRLSCAASGLIFFGNTMGWYRQAPGKDRELVAAISKRGTTYYADSVKGRFKISRDNAKNTVYLQMNSLKPEDTAVYYCAAGGTFFHRLDYYYRSDYWGQGTQVTVSS	high polyreactivity
QVQLVESGRGLVQAGGSLRLSCAASGSTFAPYTMGWYRQAPGKERELVAAISWNGGRTSYADSVKGRFTISRDNAKNTVYLQMNSLKPEDTAVYYCATRRIWTQSYDGGLYGYYYWGQGTQVTVSS	high polyreactivity
QVQLEESGGGLVQAGGRLRLSCAASGNTFQVYAMGWSRQASGTERELVATITSGGSTNYADSVKGRFTISRDNAKNTVYLQMNSQIPDDTAVYYCARRAVYSKRRYDYWGQGTQVTVSS	low polyreactivity
QVQLVESGGGLVQAGGSLRLSCAASGGTFWTNAMGWYRQAPGKERELVARITSGGGTNYADSVKGRFTISRDNAKNTVYVQMNSRKPEDTAVYYCAAETIYYPVAQSYYSFEYWGQGTQVTVSS	low polyreactivity
QVQLVESGGGLVQAGGSLRLSCAASGSIFTIYAMGWYRQAPGKERELVATITGIADSTYYADSVKGRFTISRDNAKNTVYLQMNSLKPEDTAVYYCAADKYVAEYDYWGQGTQVTVSS	low polyreactivity
